Source: IntAct's records for PubMed 29039417

B1: BBSome complex member BBS2 (Homo sapiens), Q9BXC9 (parent)
chain: MLLPVFTLKLRHKISPRMVAIGRYDGTHPCLAAATQTGKVFIHNPHTRNQHVSASRVFQSPLESDVSLLSINQAVSCLTAGVLNPELGYDALLVGTQTNLLAYDVYNNSDLFYREVADGANAIVLGTLGDISSPLAIIGGNCALQGFNHEGSDLFWTVTGDNVNSLALCDFDGDGKKELLVGSEDFDIRVFKEDEIVAEMTETEIVTSLCPMYGSRFGYALSNGTVGVYDKTSRYWRIKSKNHAMSIHAFDLNSDGVNELITGWSNGKVDARSDRTGEVIFKDNFSSAIAGVVEGDYRMDGHIQLICCSVDGEIRGYLPGTAEMRGNLMDTSAEQDLIRELSQKKQNLLLELRNYEENAKAELASPLNEADGHRGIIPANTRLHTTLSVSLGNETQTAHTELRISTSNDTIIRAVLIFAEGIFTGESHVVHPSIHNLSSSICIPIVPPKDVPVDLHLKAFVGYRSSTQFHVFESTRQLPRFSMYALTSLDPASEPISYVNFTIAERAQRVVVWLGQNFLLPEDTHIQNAPFQVCFTSLRNGGHLHIKIKLSGEITINTDDIDLAGDIIQSMASFFAIEDLQVEADFPVYFEELRKVLVKVDEYHSVHQKLSADMADHSNLIRSLLVGAEDARLMRDMKTMKSRYMELYDLNRDLLNGYKIRCNNHTELLGNLKAVNQAIQRAGRLRVGKPKNQVITACRDAIRSNNINTLFKIMRVGTASS
partner: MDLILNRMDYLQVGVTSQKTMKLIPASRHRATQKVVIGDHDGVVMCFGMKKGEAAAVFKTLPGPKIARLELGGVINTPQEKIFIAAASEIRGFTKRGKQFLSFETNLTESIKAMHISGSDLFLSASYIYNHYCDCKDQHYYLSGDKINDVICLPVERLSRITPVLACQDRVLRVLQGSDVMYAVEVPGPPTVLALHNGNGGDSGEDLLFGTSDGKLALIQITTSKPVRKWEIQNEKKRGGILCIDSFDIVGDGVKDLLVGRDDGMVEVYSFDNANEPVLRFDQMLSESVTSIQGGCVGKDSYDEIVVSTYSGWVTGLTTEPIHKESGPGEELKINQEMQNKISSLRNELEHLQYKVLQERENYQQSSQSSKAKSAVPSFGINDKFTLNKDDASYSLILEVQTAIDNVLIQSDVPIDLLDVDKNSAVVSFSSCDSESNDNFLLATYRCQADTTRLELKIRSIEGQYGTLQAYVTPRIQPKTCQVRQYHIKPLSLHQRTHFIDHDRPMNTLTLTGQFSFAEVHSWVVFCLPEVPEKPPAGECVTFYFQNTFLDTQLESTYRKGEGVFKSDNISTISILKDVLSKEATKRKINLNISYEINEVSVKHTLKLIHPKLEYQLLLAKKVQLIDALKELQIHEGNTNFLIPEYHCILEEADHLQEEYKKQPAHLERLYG
B2: BBSome complex member BBS1 (Homo sapiens), Q8NFJ9 (parent)
chain: MAAASSSDSDACGAESNEANSKWLDAHYDPMANIHTFSACLALADLHGDGEYKLVVGDLGPGGQQPRLKVLKGPLVMTESPLPALPAAAATFLMEQHEPRTPALALASGPCVYVYKNLRPYFKFSLPQLPPNPLEQDLWNQAKEDRIDPLTLKEMLESIRETAEEPLSIQSLRFLQLELSEMEAFVNQHKSNSIKRQTVITTMTTLKKNLADEDAVSCLVLGTENKELLVLDPEAFTILAKMSLPSVPVFLEVSGQFDVEFRLAAACRNGNIYILRRDSKHPKYCIELSAQPVGLIRVHKVLVVGSTQDSLHGFTHKGKKLWTVQMPAAILTMNLLEQHSRGLQAVMAGLANGEVRIYRDKALLNVIHTPDAVTSLCFGRYGREDNTLIMTTRGGGLIIKILKRTAVFVEGGSEVGPPPAQAMKLNVPRKTRLYVDQTLREREAGTAMHRAFQTDLYLLRLRAARAYLQALESSLSPLSTTAREPLKLHAVVQGLGPTFKLTLHLQNTSTTRPVLGLLVCFLYNEALYSLPRAFFKVPLLVPGLNYPLETFVESLSNKGISDIIKVLVLREGQSAPLLSAHVNMPGSEGLAAA
partner: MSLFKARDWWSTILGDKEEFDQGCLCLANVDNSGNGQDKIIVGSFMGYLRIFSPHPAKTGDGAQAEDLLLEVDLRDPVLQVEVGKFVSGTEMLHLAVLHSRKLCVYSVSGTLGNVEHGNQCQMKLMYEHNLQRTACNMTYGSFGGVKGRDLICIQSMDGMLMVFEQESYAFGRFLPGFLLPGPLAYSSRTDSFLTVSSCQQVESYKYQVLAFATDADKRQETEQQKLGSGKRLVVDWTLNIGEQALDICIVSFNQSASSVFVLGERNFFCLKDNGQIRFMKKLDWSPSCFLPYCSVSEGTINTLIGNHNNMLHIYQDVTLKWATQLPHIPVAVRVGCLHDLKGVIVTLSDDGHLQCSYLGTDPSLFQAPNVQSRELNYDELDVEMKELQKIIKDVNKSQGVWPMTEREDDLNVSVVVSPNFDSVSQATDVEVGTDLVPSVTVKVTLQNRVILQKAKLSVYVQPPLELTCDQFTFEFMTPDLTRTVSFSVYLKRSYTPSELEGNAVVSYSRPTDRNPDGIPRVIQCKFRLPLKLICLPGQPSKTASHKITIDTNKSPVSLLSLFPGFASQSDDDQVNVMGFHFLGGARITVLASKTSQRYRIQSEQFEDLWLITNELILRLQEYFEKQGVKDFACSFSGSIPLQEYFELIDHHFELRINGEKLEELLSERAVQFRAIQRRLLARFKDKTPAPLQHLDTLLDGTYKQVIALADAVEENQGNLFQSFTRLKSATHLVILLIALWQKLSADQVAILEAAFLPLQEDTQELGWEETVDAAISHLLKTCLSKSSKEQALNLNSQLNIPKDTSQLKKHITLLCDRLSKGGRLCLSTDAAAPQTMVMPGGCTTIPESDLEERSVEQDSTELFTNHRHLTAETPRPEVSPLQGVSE

Variants of: B1
Conditions: with BBS7, Q8IWZ6-2

| Variant | effect of a mutation on the interaction |
| --- | --- |
| L348E | with no effect |
| L348A | with no effect |
| Q346A | with no effect |
| Q346E | with no effect |
| R339K | with no effect |
| L337K | with no effect |
| I338E | with no effect |
| I338K | with no effect |
| E340K | with no effect |
| D330E | with no effect |
| Q343K | with no effect |
| Q335A | with no effect |
| L341K | with no effect |
| L341E | with no effect |
| L341A | with no effect |
| S332A | with no effect |
| L350K | with no effect |

| Variant | effect of a mutation on the interaction |
| --- | --- |
| L350A | with no effect |
| R325K | with no effect |
| R325E | with no effect |
| L328A | with no effect |
| L328E | with no effect |
| G326E | with no effect |
| G326A | with no effect |
| N327K | with no effect |
| M329K | with no effect |
| S342E | with no effect |
| A333K | with no effect |
| T331E | with no effect |
| N347K | with no effect |
| D336A | with no effect |
| D336E | with no effect |
| K344A | with no effect |

The remaining lines, values ahead:

| effect of a mutation on the interaction | Variant |
| --- | --- |
| with no effect | L348K |
| with no effect | Q346K |
| with no effect | L349A |
| with no effect | L349K |
| with no effect | L349E |
| with no effect | R339E |
| with no effect | R339A |
| with no effect | L337E |
| with no effect | L337A |
| with no effect | I338A |
| with no effect | E334K |
| with no effect | E334A |
| with no effect | E340A |
| with no effect | D330K |
| with no effect | D330A |
| with no effect | Q343E |
| with no effect | Q343A |
| with no effect | Q335E |
| with no effect | Q335K |
| with no effect | S332K |

| effect of a mutation on the interaction | Variant |
| --- | --- |
| with no effect | S332E |
| with no effect | L350E |
| with no effect | R325A |
| with no effect | L328K |
| with no effect | G326K |
| with no effect | N327A |
| with no effect | N327E |
| with no effect | M329A |
| with no effect | M329E |
| with no effect | S342A |
| with no effect | S342K |
| with no effect | K345A |
| with no effect | K345E |
| with no effect | A333E |
| with no effect | T331A |
| with no effect | T331K |
| with no effect | N347E |
| with no effect | N347A |
| with no effect | D336K |
| with no effect | K344E |

Variants of: B2
Conditions: with pthb1_human BBS9, Q3SYG4

| Variant | effect of a mutation on the interaction |
| --- | --- |
| S574K | with no effect |
| S574A | with no effect |
| S574E | with no effect |
| P585K | with no effect |
| N557A | with no effect |
| G559K | with no effect |
| K558E | with no effect |
| Q573K | with no effect |
| I560E | with no effect |
| I560A | with no effect |
| L577E | with no effect |
| G572K | with no effect |
| G572A | with no effect |
| E588K | with no effect |
| E588A | with no effect |
| V582E | with no effect |
| L590A | with no effect |
| L590K | with no effect |
| L590E | with no effect |
| S579E | with no effect |
| I564A | disrupting interaction strength |

| Variant | effect of a mutation on the interaction |
| --- | --- |
| I564E | disrupting interaction strength |
| L578K | with no effect |
| L578E | with no effect |
| A592K | with no effect |
| A580K | with no effect |
| A580E | with no effect |
| S587K | with no effect |
| S587A | with no effect |
| S587E | with no effect |
| A591K | with no effect |
| A591E | with no effect |
| K565A | with no effect |
| K565E | with no effect |
| S556E | with no effect |
| S556A | with no effect |
| S556K | with no effect |
| E571K | with no effect |
| A575E | with no effect |
| L569K | with no effect |
| D562K | with no effect |
| V568K | disrupting interaction strength |

| Variant | effect of a mutation on the interaction |
| --- | --- |
| A593E | with no effect |
| A593K | with no effect |
| G589A | with no effect |
| G589E | with no effect |
| L567E | with no effect |
| L567A | with no effect |
| L567K | with no effect |
| P576K | disrupting interaction strength |
| P576E | with no effect |
| G586K | with no effect |
| G586E | with no effect |
| I563A | with no effect |
| I563E | with no effect |
| M584K | with no effect |
| V566K | disrupting interaction strength |
| V566E | disrupting interaction strength |
| V566A | with no effect |
| S561A | with no effect |
| S561E | with no effect |
| S561K | with no effect |

More lines, now with the values ahead:

| effect of a mutation on the interaction | Variant |
| --- | --- |
| with no effect | P585A |
| with no effect | P585E |
| with no effect | N557K |
| with no effect | N557E |
| with no effect | G559A |
| with no effect | G559E |
| with no effect | K558A |
| with no effect | Q573A |
| with no effect | Q573E |
| with no effect | I560K |
| with no effect | L577A |
| with no effect | L577K |
| with no effect | G572E |
| with no effect | V582K |
| with no effect | V582A |
| with no effect | S579K |
| with no effect | S579A |
| with no effect | H581K |
| with no effect | H581A |
| with no effect | H581E |
| disrupting interaction strength | I564K |
| with no effect | L578A |

| effect of a mutation on the interaction | Variant |
| --- | --- |
| with no effect | A592E |
| with no effect | R570A |
| with no effect | R570E |
| with no effect | R570K |
| with no effect | N583K |
| with no effect | N583A |
| with no effect | N583E |
| with no effect | E571A |
| with no effect | A575K |
| disrupting interaction strength | L569E |
| with no effect | L569A |
| with no effect | D562A |
| with no effect | D562E |
| disrupting interaction strength | V568A |
| disrupting interaction strength | V568E |
| with no effect | G589K |
| with no effect | P576A |
| disrupting interaction strength | G586R |
| with no effect | G586A |
| with no effect | I563K |
| with no effect | M584E |
| with no effect | M584A |

Variants of: B2
Conditions: with pthb1_human BBS9, Q3SYG4
Remark: another data set of the same source

| effect of a mutation on the interaction | Variant |
| --- | --- |
| with no effect | R512H |
| disrupting interaction strength | L503H |
| with no effect | I564A |
